Reference: patent publication US20140087995A1 (published 2014)
Numbered stars: 1 amine (or outer) side, 2 acyl side, 3 side chain; on linkers, the order of the positions; unused ones are H or OH. Bridge positions count the residues as written; N and C are the ends. Side chains are listed from the residue outwards. Ends that are not written are not given here. * marks the point of attachment. C20 diacid = O=C(O)CCCCCCCCCCCCCCCCCCC(=O)*; γGlu = O=C(O)[C@H](CCC(=O)[*:2])N[*:1]

T1: human calcitonin receptor (human, UniProt P30988 25-474)
T1 construct: whole, on cells; Assay used cell membranes, not intact cells; also called hCTR; hCT
T1 sequence (looked up): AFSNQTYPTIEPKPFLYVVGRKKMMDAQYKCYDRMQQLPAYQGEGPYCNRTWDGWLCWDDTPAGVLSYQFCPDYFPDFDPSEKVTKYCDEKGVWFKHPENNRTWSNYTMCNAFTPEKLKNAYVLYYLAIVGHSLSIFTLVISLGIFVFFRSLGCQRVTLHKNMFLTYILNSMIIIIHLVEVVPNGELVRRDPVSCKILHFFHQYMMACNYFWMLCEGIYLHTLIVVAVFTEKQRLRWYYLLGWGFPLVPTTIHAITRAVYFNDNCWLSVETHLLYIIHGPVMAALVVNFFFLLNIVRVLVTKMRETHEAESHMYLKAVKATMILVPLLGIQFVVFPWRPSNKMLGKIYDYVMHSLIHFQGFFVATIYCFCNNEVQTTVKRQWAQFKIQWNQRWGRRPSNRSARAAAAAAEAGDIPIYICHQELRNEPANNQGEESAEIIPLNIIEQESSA

T2: human amylin receptor (amylin 3(a) receptor: human calcitonin receptor with RAMP-3) (human, UniProt P30988 25-474; O60896 24-148)
T2 construct: whole, on cells; Assay used cell membranes of the Amylin 3(a)/CRE-luc BHK cells, not intact cells; also called hAmylin-R; hAmylinR
T2 sequence (looked up) 1: T1 sequence (looked up)
T2 sequence (looked up) 2: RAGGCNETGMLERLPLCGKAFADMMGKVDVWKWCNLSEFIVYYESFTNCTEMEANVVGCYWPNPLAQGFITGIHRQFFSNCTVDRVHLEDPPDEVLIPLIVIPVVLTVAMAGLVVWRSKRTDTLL

B1: N^-1-[(4S)-4-carboxy-4-(19-carboxynonadecanoylamino)butanoyl]-Gly[Arg1,His14,Arg17,Pro21,Pro27,His34]-h-amylin (peptide)
peptide: {C20 diacid-γGlu}-GRCNTATCATQRLAHFLRHSSPNFGAIPSSTNVGHNTY-NH2
modifications: disulfide 3-8
SMILES: CC[C@H](C)[C@H](NC(=O)[C@H](C)NC(=O)CNC(=O)[C@H](Cc1ccccc1)NC(=O)[C@H](CC(N)=O)NC(=O)[C@@H]1CCCN1C(=O)[C@H](CO)NC(=O)[C@H](CO)NC(=O)[C@H](Cc1c[nH]cn1)NC(=O)[C@H](CCCNC(=N)N)NC(=O)[C@H](CC(C)C)NC(=O)[C@H](Cc1ccccc1)NC(=O)[C@H](Cc1c[nH]cn1)NC(=O)[C@H](C)NC(=O)[C@H](CC(C)C)NC(=O)[C@H](CCCNC(=N)N)NC(=O)[C@H](CCC(N)=O)NC(=O)[C@@H](NC(=O)[C@H](C)NC(=O)[C@@H]1CSSC[C@H](NC(=O)[C@H](CCCNC(=N)N)NC(=O)CNC(=O)CC[C@H](NC(=O)CCCCCCCCCCCCCCCCCCC(=O)O)C(=O)O)C(=O)N[C@@H](CC(N)=O)C(=O)N[C@@H]([C@@H](C)O)C(=O)N[C@@H](C)C(=O)N[C@@H]([C@@H](C)O)C(=O)N1)[C@@H](C)O)C(=O)N1CCC[C@H]1C(=O)N[C@@H](CO)C(=O)N[C@@H](CO)C(=O)N[C@H](C(=O)N[C@@H](CC(N)=O)C(=O)N[C@H](C(=O)NCC(=O)N[C@@H](Cc1c[nH]cn1)C(=O)N[C@@H](CC(N)=O)C(=O)N[C@H](C(=O)N[C@@H](Cc1ccc(O)cc1)C(N)=O)[C@@H](C)O)C(C)C)[C@@H](C)O
notes: also called compound 100
B2: N^-1-[(4S)-4-carboxy-4-(19-carboxynonadecanoylamino)butanoyl]-Gly[Arg1,Ala14,Arg17,Pro21,Pro27,His34]-h-amylin (peptide)
peptide: {C20 diacid-γGlu}-GRCNTATCATQRLAAFLRHSSPNFGAIPSSTNVGHNTY-NH2
modifications: disulfide 3-8
SMILES: CC[C@H](C)[C@H](NC(=O)[C@H](C)NC(=O)CNC(=O)[C@H](Cc1ccccc1)NC(=O)[C@H](CC(N)=O)NC(=O)[C@@H]1CCCN1C(=O)[C@H](CO)NC(=O)[C@H](CO)NC(=O)[C@H](Cc1c[nH]cn1)NC(=O)[C@H](CCCNC(=N)N)NC(=O)[C@H](CC(C)C)NC(=O)[C@H](Cc1ccccc1)NC(=O)[C@H](C)NC(=O)[C@H](C)NC(=O)[C@H](CC(C)C)NC(=O)[C@H](CCCNC(=N)N)NC(=O)[C@H](CCC(N)=O)NC(=O)[C@@H](NC(=O)[C@H](C)NC(=O)[C@@H]1CSSC[C@H](NC(=O)[C@H](CCCNC(=N)N)NC(=O)CNC(=O)CC[C@H](NC(=O)CCCCCCCCCCCCCCCCCCC(=O)O)C(=O)O)C(=O)N[C@@H](CC(N)=O)C(=O)N[C@@H]([C@@H](C)O)C(=O)N[C@@H](C)C(=O)N[C@@H]([C@@H](C)O)C(=O)N1)[C@@H](C)O)C(=O)N1CCC[C@H]1C(=O)N[C@@H](CO)C(=O)N[C@@H](CO)C(=O)N[C@H](C(=O)N[C@@H](CC(N)=O)C(=O)N[C@H](C(=O)NCC(=O)N[C@@H](Cc1c[nH]cn1)C(=O)N[C@@H](CC(N)=O)C(=O)N[C@H](C(=O)N[C@@H](Cc1ccc(O)cc1)C(N)=O)[C@@H](C)O)C(C)C)[C@@H](C)O
B3: N^ε1-[(4S)-4-carboxy-4-[[(4S)-4-carboxy-4-(19-carboxynonadecanoylamino)butanoyl]amino]butanoyl]-[Glu14,Arg17,Pro21,Pro27,Pro34,Arg35]-h-amylin (peptide)
peptide: K([γGlu-γGlu-C20 diacid])CNTATCATQRLAEFLRHSSPNFGAIPSSTNVGPRTY-NH2
modifications: disulfide 2-7; N-terminus assumed
SMILES: CC[C@H](C)[C@H](NC(=O)[C@H](C)NC(=O)CNC(=O)[C@H](Cc1ccccc1)NC(=O)[C@H](CC(N)=O)NC(=O)[C@@H]1CCCN1C(=O)[C@H](CO)NC(=O)[C@H](CO)NC(=O)[C@H](Cc1c[nH]cn1)NC(=O)[C@H](CCCNC(=N)N)NC(=O)[C@H](CC(C)C)NC(=O)[C@H](Cc1ccccc1)NC(=O)[C@H](CCC(=O)O)NC(=O)[C@H](C)NC(=O)[C@H](CC(C)C)NC(=O)[C@H](CCCNC(=N)N)NC(=O)[C@H](CCC(N)=O)NC(=O)[C@@H](NC(=O)[C@H](C)NC(=O)[C@@H]1CSSC[C@H](NC(=O)[C@@H](N)CCCCNC(=O)CC[C@H](NC(=O)CC[C@H](NC(=O)CCCCCCCCCCCCCCCCCCC(=O)O)C(=O)O)C(=O)O)C(=O)N[C@@H](CC(N)=O)C(=O)N[C@@H]([C@@H](C)O)C(=O)N[C@@H](C)C(=O)N[C@@H]([C@@H](C)O)C(=O)N1)[C@@H](C)O)C(=O)N1CCC[C@H]1C(=O)N[C@@H](CO)C(=O)N[C@@H](CO)C(=O)N[C@H](C(=O)N[C@@H](CC(N)=O)C(=O)N[C@H](C(=O)NCC(=O)N1CCC[C@H]1C(=O)N[C@@H](CCCNC(=N)N)C(=O)N[C@H](C(=O)N[C@@H](Cc1ccc(O)cc1)C(N)=O)[C@@H](C)O)C(C)C)[C@@H](C)O
notes: also called compound 110
B4: N^ε1-[(4S)-4-carboxy-4-[[(4S)-4-carboxy-4-(19-carboxynonadecanoylamino)butanoyl]amino]butanoyl]-[Ser14,Arg17,Pro21,Pro27,Pro34,Glu35]-h-amylin (peptide)
peptide: K([γGlu-γGlu-C20 diacid])CNTATCATQRLASFLRHSSPNFGAIPSSTNVGPETY-NH2
modifications: disulfide 2-7; N-terminus assumed
SMILES: CC[C@H](C)[C@H](NC(=O)[C@H](C)NC(=O)CNC(=O)[C@H](Cc1ccccc1)NC(=O)[C@H](CC(N)=O)NC(=O)[C@@H]1CCCN1C(=O)[C@H](CO)NC(=O)[C@H](CO)NC(=O)[C@H](Cc1c[nH]cn1)NC(=O)[C@H](CCCNC(=N)N)NC(=O)[C@H](CC(C)C)NC(=O)[C@H](Cc1ccccc1)NC(=O)[C@H](CO)NC(=O)[C@H](C)NC(=O)[C@H](CC(C)C)NC(=O)[C@H](CCCNC(=N)N)NC(=O)[C@H](CCC(N)=O)NC(=O)[C@@H](NC(=O)[C@H](C)NC(=O)[C@@H]1CSSC[C@H](NC(=O)[C@@H](N)CCCCNC(=O)CC[C@H](NC(=O)CC[C@H](NC(=O)CCCCCCCCCCCCCCCCCCC(=O)O)C(=O)O)C(=O)O)C(=O)N[C@@H](CC(N)=O)C(=O)N[C@@H]([C@@H](C)O)C(=O)N[C@@H](C)C(=O)N[C@@H]([C@@H](C)O)C(=O)N1)[C@@H](C)O)C(=O)N1CCC[C@H]1C(=O)N[C@@H](CO)C(=O)N[C@@H](CO)C(=O)N[C@H](C(=O)N[C@@H](CC(N)=O)C(=O)N[C@H](C(=O)NCC(=O)N1CCC[C@H]1C(=O)N[C@@H](CCC(=O)O)C(=O)N[C@H](C(=O)N[C@@H](Cc1ccc(O)cc1)C(N)=O)[C@@H](C)O)C(C)C)[C@@H](C)O
notes: also called compound 120
B5: N^ε1-[(4S)-4-carboxy-4-[[(4S)-4-carboxy-4-(19-carboxynonadecanoylamino)butanoyl]amino]butanoyl]-[His14,Arg17,Pro21,Pro27]-h-amylin (peptide)
peptide: K([γGlu-γGlu-C20 diacid])CNTATCATQRLAHFLRHSSPNFGAIPSSTNVGSNTY-NH2
modifications: disulfide 2-7; N-terminus assumed
SMILES: CC[C@H](C)[C@H](NC(=O)[C@H](C)NC(=O)CNC(=O)[C@H](Cc1ccccc1)NC(=O)[C@H](CC(N)=O)NC(=O)[C@@H]1CCCN1C(=O)[C@H](CO)NC(=O)[C@H](CO)NC(=O)[C@H](Cc1c[nH]cn1)NC(=O)[C@H](CCCNC(=N)N)NC(=O)[C@H](CC(C)C)NC(=O)[C@H](Cc1ccccc1)NC(=O)[C@H](Cc1c[nH]cn1)NC(=O)[C@H](C)NC(=O)[C@H](CC(C)C)NC(=O)[C@H](CCCNC(=N)N)NC(=O)[C@H](CCC(N)=O)NC(=O)[C@@H](NC(=O)[C@H](C)NC(=O)[C@@H]1CSSC[C@H](NC(=O)[C@@H](N)CCCCNC(=O)CC[C@H](NC(=O)CC[C@H](NC(=O)CCCCCCCCCCCCCCCCCCC(=O)O)C(=O)O)C(=O)O)C(=O)N[C@@H](CC(N)=O)C(=O)N[C@@H]([C@@H](C)O)C(=O)N[C@@H](C)C(=O)N[C@@H]([C@@H](C)O)C(=O)N1)[C@@H](C)O)C(=O)N1CCC[C@H]1C(=O)N[C@@H](CO)C(=O)N[C@@H](CO)C(=O)N[C@H](C(=O)N[C@@H](CC(N)=O)C(=O)N[C@H](C(=O)NCC(=O)N[C@@H](CO)C(=O)N[C@@H](CC(N)=O)C(=O)N[C@H](C(=O)N[C@@H](Cc1ccc(O)cc1)C(N)=O)[C@@H](C)O)C(C)C)[C@@H](C)O
notes: also called compound 92

These binders were tested against T1, human calcitonin receptor (assay: ratio IC50 hCTR / IC50 hAmylin-R (reference: human amylin receptor), SPA competition assays).
Outline: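 IC₅₀ values were derived by one-site competition analysis of SPA counts. Cell membranes (35 ng/μL) with SPA beads were incubated with test compounds for 120 min at 25° C in Hepes buffer, pH 7.4, containing CaCl2, MgCl₂, OA and Tween20.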

Ratio hCT/hAmylin binding | Binder
65.3 | B1
68.6 | B2
26.5 | {C20 diacid-γGlu}-GRCNTATCATQRLAAFLRHSSPNFGAIPSSTNVGPNTY-NH2 (disulfide 3-8)
53.6 | B3
45.3 | B4
22.6 | K([γGlu-γGlu-C20 diacid])CNTATCATQRLAEFLRHSSPNFGAILSSTPVGPETY-NH2 (disulfide 2-7 (inferred))
145 | B5
27.3 | K([γGlu-γGlu-C20 diacid])CNTATCATQRLAEFLRHSSPNFGAIPSSTNVGPHTY-NH2 (disulfide 2-7 (inferred))

These binders were tested against T1, human calcitonin receptor (assay: SPA competition with 125I-calcitonin on membranes of BHK cells with human calcitonin receptor (Assay VII)).
Outline: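 BHK hCTR membranes 35 ng/μL + SPA beads 0.05 mg/well; buffer 50 mM Hepes pH 7.4, 1 mM CaCl2, 5 mM MgCl₂, 0.1% OA, 0.02% Tween20. 120 min, 25° C., shaking. Scintillation count; IC50 by one-site binding competition.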

IC50 [nM] | Binder
66.3 | B1
29.2 | B2
3 | {C20 diacid-γGlu}-GRCNTATCATQRLAAFLRHSSPNFGAIPSSTNVGPNTY-NH2 (disulfide 3-8)
17.5 | B3
3.44 | B4
1.56 | K([γGlu-γGlu-C20 diacid])CNTATCATQRLAEFLRHSSPNFGAILSSTPVGPETY-NH2 (disulfide 2-7 (inferred))
26 | B5
10.3 | K([γGlu-γGlu-C20 diacid])CNTATCATQRLAEFLRHSSPNFGAIPSSTNVGPHTY-NH2 (disulfide 2-7 (inferred))

Each binder was assayed against T2, human amylin receptor (amylin 3(a) …) (assay: SPA competition with 125I-rat amylin on membranes of BHK cells with human calcitonin receptor and RAMP-3 (Assay V)).
Outline: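 Cell membranes were prepared by homogenisation in Na-HEPES/EDTA buffer, pH 7.4, and stored at −80° C. They were then coupled to SPA beads at 35 ng/μL final and exposed to compounds in assay buffer containing CaCl2, MgCl₂, OA and Tween20. After 120 min at 25° C, plates were counted and IC₅₀ derived.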

IC50 [nM] | Binder
1.01 | B1
0.426 | B2
0.114 | {C20 diacid-γGlu}-GRCNTATCATQRLAAFLRHSSPNFGAIPSSTNVGPNTY-NH2 (disulfide 3-8)
0.326 | B3
0.076 | B4
0.069 | K([γGlu-γGlu-C20 diacid])CNTATCATQRLAEFLRHSSPNFGAILSSTPVGPETY-NH2 (disulfide 2-7 (inferred))
0.179 | B5
0.377 | K([γGlu-γGlu-C20 diacid])CNTATCATQRLAEFLRHSSPNFGAIPSSTNVGPHTY-NH2 (disulfide 2-7 (inferred))
